In the Human Domainome abundance scans (Beltran et al. 2025):
± gives the uncertainty stated by the source.

B1: Heterogeneous nuclear ribonucleoprotein U-like protein 2, residues 1 to 40; numbered along this chain, Q1KMD3 (parent)
chain: MEVKRLKVTELRSELQRRGLDSRGLKVDLAQRLQEALDAE
B2: Tripartite motif-containing protein 6, residues 93 to 134; numbered along this chain, Q9C030 (parent)
chain: KAVLCADHGEKLQLFCQEDGKVICWLCERSQEHRGHHTFLVE

Variants of: B1
Experiment: abundance fitness (aPCA) (normalised: wild type 0, dead -1); higher = more abundant; growth selection in yeast, the domain comes from the species named
Conditions: Homo sapiens
Variant R5W has an abundance fitness of -0.256 ± 0.056. R5S gave an abundance fitness of 0.046 ± 0.055. For R5V, the abundance fitness was -0.35 ± 0.059. Work on R5N yielded an abundance fitness of -0.03 ± 0.19. R5M showed an abundance fitness of -0.038 ± 0.096. In the case of R5Y, the abundance fitness is reported as -0.247 ± 0.16. In the case of R5K, the abundance fitness is reported as 0.194 ± 0.08. In the case of R5A, the abundance fitness is reported as 0.005 ± 0.048. With R5D the abundance fitness was 0.181 ± 0.19. Variant R5E has an abundance fitness of 0.077 ± 0.061. R5P showed an abundance fitness of -0.435 ± 0.074. Variant R5F has an abundance fitness of -0.302 ± 0.15. Variant R5Q has an abundance fitness of 0.006 ± 0.055. Work on R5C yielded an abundance fitness of -0.129 ± 0.064. For R5I, the abundance fitness was -0.237 ± 0.096. Work on R5G yielded an abundance fitness of -0.021 ± 0.048. With R5L the abundance fitness was -0.031 ± 0.059. K4T showed an abundance fitness of 0.019 ± 0.088. With K4M the abundance fitness was 0.091 ± 0.11. For K4G, the abundance fitness was -0.126 ± 0.047. For K4R, the abundance fitness was -0.152 ± 0.051. For K4L, the abundance fitness was -0.123 ± 0.059. K4W showed an abundance fitness of -0.097 ± 0.058. K4Y showed an abundance fitness of -0.112 ± 0.095. In the case of K4I, the abundance fitness is reported as -0.317 ± 0.098. With K4Q the abundance fitness was -0.028 ± 0.073. K4D gave an abundance fitness of -0.082 ± 0.073. With K4E the abundance fitness was 0.09 ± 0.062. K4F showed an abundance fitness of -0.182 ± 0.17. With K4C the abundance fitness was -0.181 ± 0.067. In the case of K4H, the abundance fitness is reported as 0.335 ± 0.46. With K4P the abundance fitness was -0.37 ± 0.074. With K4A the abundance fitness was -0.06 ± 0.049. L11C gave an abundance fitness of -0.988 ± 0.15. L11F showed an abundance fitness of -0.574 ± 0.16. With L11G the abundance fitness was -0.502 ± 0.046. L11A showed an abundance fitness of -0.458 ± 0.052. In the case of L11H, the abundance fitness is reported as -0.827 ± 0.22. L11D showed an abundance fitness of -0.436 ± 0.085. Variant L11E has an abundance fitness of -0.336 ± 0.056. L6I gave an abundance fitness of -0.7 ± 0.31. With L6D the abundance fitness was -0.845 ± 0.23. L6N showed an abundance fitness of -0.236 ± 0.14. For L6V, the abundance fitness was -0.425 ± 0.06. For L6H, the abundance fitness was -0.496 ± 0.12. In the case of L6F, the abundance fitness is reported as -0.063 ± 0.15. With L6Y the abundance fitness was -0.46 ± 0.15. For L6G, the abundance fitness was -0.485 ± 0.049. Variant L6R has an abundance fitness of -0.572 ± 0.052. Work on L6K yielded an abundance fitness of -0.144 ± 0.089. L6T gave an abundance fitness of 0.024 ± 0.18. Work on L6E yielded an abundance fitness of -0.26 ± 0.066. In the case of L6Q, the abundance fitness is reported as -0.198 ± 0.075. For L6C, the abundance fitness was -1.02 ± 0.13. With L6S the abundance fitness was -0.476 ± 0.059. Work on L6W yielded an abundance fitness of -0.281 ± 0.056. Work on L6M yielded an abundance fitness of 0.348 ± 0.11. L6P gave an abundance fitness of -0.48 ± 0.074. E10W gave an abundance fitness of -0.599 ± 0.066. In the case of E10T, the abundance fitness is reported as -0.305 ± 0.079. E10N gave an abundance fitness of -0.726 ± 0.25. Variant E10R has an abundance fitness of -0.619 ± 0.051. Work on E10Q yielded an abundance fitness of -0.023 ± 0.098. Work on E10M yielded an abundance fitness of -0.329 ± 0.072. Variant E10P has an abundance fitness of -0.758 ± 0.088. E10Y gave an abundance fitness of -0.869 ± 0.21. For E10V, the abundance fitness was -0.376 ± 0.059. For E10L, the abundance fitness was -0.641 ± 0.057. In the case of E10A, the abundance fitness is reported as -0.336 ± 0.056. E10S gave an abundance fitness of -0.512 ± 0.066. Variant E10K has an abundance fitness of -1.08 ± 0.13. Work on V3D yielded an abundance fitness of -0.202 ± 0.085. V3R gave an abundance fitness of -0.567 ± 0.05. Variant V3G has an abundance fitness of -0.325 ± 0.048. V3Y gave an abundance fitness of -0.226 ± 0.088. V3E showed an abundance fitness of -0.279 ± 0.07. Work on V3A yielded an abundance fitness of -0.107 ± 0.055. In the case of V3F, the abundance fitness is reported as -0.374 ± 0.17. With V3Q the abundance fitness was -0.328 ± 0.082. Variant V3I has an abundance fitness of 0.048 ± 0.13. With V3C the abundance fitness was -0.357 ± 0.1. Work on V3L yielded an abundance fitness of -0.122 ± 0.063. Work on V3P yielded an abundance fitness of -0.077 ± 0.063. Variant V3H has an abundance fitness of -0.603 ± 0.19. With V3T the abundance fitness was -0.114 ± 0.073. V3S showed an abundance fitness of -0.245 ± 0.062. V3K gave an abundance fitness of -0.501 ± 0.1. V3W gave an abundance fitness of -0.432 ± 0.053. In the case of K7I, the abundance fitness is reported as -0.388 ± 0.15. With K7V the abundance fitness was -0.274 ± 0.054. K7A gave an abundance fitness of -0.069 ± 0.05. In the case of K7R, the abundance fitness is reported as -0.153 ± 0.051. Work on K7F yielded an abundance fitness of -0.484 ± 0.12. K7L gave an abundance fitness of -0.143 ± 0.052. With K7D the abundance fitness was 0.135 ± 0.072. Variant K7P has an abundance fitness of -0.065 ± 0.06. K7C showed an abundance fitness of -0.158 ± 0.068. K7S showed an abundance fitness of 0.141 ± 0.056. K7N showed an abundance fitness of 0.305 ± 0.11. Variant K7G has an abundance fitness of 0.015 ± 0.047. Variant K7Q has an abundance fitness of 0.067 ± 0.08. M1H showed an abundance fitness of -1.03 ± 0.24. For M1E, the abundance fitness was -0.08 ± 0.078. Variant M1G has an abundance fitness of -0.383 ± 0.066. With M1D the abundance fitness was -1.65 ± 0.32. Work on M1K yielded an abundance fitness of -0.136 ± 0.087. M1C showed an abundance fitness of -0.414 ± 0.19. In the case of M1L, the abundance fitness is reported as -0.339 ± 0.097. For M1A, the abundance fitness was -0.461 ± 0.067. Variant M1W has an abundance fitness of -0.354 ± 0.091. For M1T, the abundance fitness was -0.564 ± 0.13. M1F gave an abundance fitness of -0.179 ± 0.19. Work on M1S yielded an abundance fitness of -0.589 ± 0.27. M1Q gave an abundance fitness of -0.514 ± 0.11. M1Y showed an abundance fitness of -0.749 ± 0.41. M1V showed an abundance fitness of -0.277 ± 0.053. In the case of M1R, the abundance fitness is reported as -0.236 ± 0.061. E2L showed an abundance fitness of -0.294 ± 0.068. With E2Y the abundance fitness was -0.161 ± 0.085. E2T showed an abundance fitness of -0.243 ± 0.13. Work on E2P yielded an abundance fitness of -0.844 ± 0.1. In the case of E2R, the abundance fitness is reported as -0.365 ± 0.07. E2I gave an abundance fitness of -0.271 ± 0.12. For E2Q, the abundance fitness was -0.193 ± 0.091. E2S showed an abundance fitness of -0.243 ± 0.082. With E2G the abundance fitness was -0.371 ± 0.06. For E2C, the abundance fitness was -0.388 ± 0.088. For E2H, the abundance fitness was -0.201 ± 0.15. Work on E2K yielded an abundance fitness of -0.432 ± 0.079. Work on E2A yielded an abundance fitness of -0.33 ± 0.061. E2V gave an abundance fitness of -0.336 ± 0.094. E2W showed an abundance fitness of -0.263 ± 0.067. T9P showed an abundance fitness of -0.132 ± 0.066. Variant T9G has an abundance fitness of -0.017 ± 0.05. With T9K the abundance fitness was 0.099 ± 0.12. In the case of T9I, the abundance fitness is reported as 0.102 ± 0.15. With T9E the abundance fitness was 0.113 ± 0.053. For T9L, the abundance fitness was -0.27 ± 0.067. Work on T9R yielded an abundance fitness of -0.012 ± 0.049. In the case of T9V, the abundance fitness is reported as -0.153 ± 0.056. With T9H the abundance fitness was 0.163 ± 0.13. Work on T9Q yielded an abundance fitness of 0.022 ± 0.068. For T9C, the abundance fitness was -0.054 ± 0.099. Work on T9Y yielded an abundance fitness of -0.135 ± 0.14. For T9A, the abundance fitness was -0.04 ± 0.053. T9M showed an abundance fitness of 0.074 ± 0.12. With T9S the abundance fitness was -0.083 ± 0.054. Variant T9W has an abundance fitness of -0.103 ± 0.06. Work on V8S yielded an abundance fitness of -0.167 ± 0.057. V8I showed an abundance fitness of -0.265 ± 0.2. For V8K, the abundance fitness was -0.163 ± 0.11. V8D showed an abundance fitness of 0.024 ± 0.075. V8Y showed an abundance fitness of 0.072 ± 0.12. V8A showed an abundance fitness of -0.077 ± 0.062. Variant V8T has an abundance fitness of 0.033 ± 0.074. V8P showed an abundance fitness of -0.298 ± 0.069. V8M gave an abundance fitness of -0.04 ± 0.065. V8W showed an abundance fitness of -0.435 ± 0.056. For V8R, the abundance fitness was -0.334 ± 0.049. Work on V8F yielded an abundance fitness of -0.289 ± 0.12. V8G showed an abundance fitness of -0.354 ± 0.05. With V8N the abundance fitness was -0.27 ± 0.16. Work on V8L yielded an abundance fitness of -0.025 ± 0.054. Variant V8Q has an abundance fitness of -0.169 ± 0.062. For V8C, the abundance fitness was -0.146 ± 0.065.

Variants of: B2
Experiment: as above
Conditions: Homo sapiens
E42T showed an abundance fitness of 0.216 ± 0.23. In the case of E42Y, the abundance fitness is reported as -0.421 ± 0.21.
